Values of other authors as cited in paper PMC2678197.
pKd: −log10 of the molar value.

Key:
[1] = biological target: CCR5 N-terminal peptide (unsulfated) N-terminal region (Homo sapiens) (UniProt P51681); experiment: NMR
[2] = biological target: CCR5 N-terminal peptide (bis-sulfated) N-terminal region (Homo sapiens) (UniProt P51681); experiment: NMR
[3] = biological target: CCR3 N-terminal peptide (truncated, non-sulfated) 8-23 (Homo sapiens) (UniProt P51677)
[4] = biological target: CCR3 N-terminal peptide (35 residues, non-sulfated) 1-35 (Homo sapiens) (UniProt P51677)
Chain of CCR3 N-terminal peptide (35 residues, non-sulfated) 1-35 (Homo sapiens) (P51677 1-35): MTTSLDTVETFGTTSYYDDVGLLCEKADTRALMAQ

Chain of RANTES (P13501 27-91): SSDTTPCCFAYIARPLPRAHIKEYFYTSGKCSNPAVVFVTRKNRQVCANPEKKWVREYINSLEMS
Chain of CCR5 N-terminal peptide (bis-sulfated) N-terminal region (Homo sapiens) (P51681 1-27): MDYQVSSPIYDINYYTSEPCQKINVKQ

| pKd [1] | pKd [2] | pKd [3] | pKd [4] | Substance |
| --- | --- | --- | --- | --- |
| 3.77 | > 4.70 | – | – | RANTES (from UniProt P13501) |
| – | – | 3.87 | 4.10 | eotaxin (from UniProt P51671) |
